Data published in the supplement of paper PMC10567573.

B1: BTBD1 (parent)
chain: YGSIHGPTDYQVNIQIIEYEKKQT

Variants of: B1
Experiment: protein stability index of a GFP-peptide fusion (GPS, HEK-293T) (PSI 1-6); higher = more stable
Details: c terminus: a fixed tail appended
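Note: lentivirally expressed fusions sorted by FACS into six bins by GFP to DsRed ratio, PSI derived from sequencing read proportions per bin multiplied by bin number.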

Protein stability index, by site and new letter:
T8: D 3.66, M 1.74, G 2.44, S 3.11, I 2.06, R 2.57, C 2.25, K 2.16, Y 2.56, H 2.38, V 2.06, P 2.97, Q 3.08, A 2.71
I16: A 3.8, N 3.55, Y 2.71, D 3.61, E 3.81, S 3.58, L 2.74, H 3.91, P 2.9, Q 3.9, W 2.48, G 3.31
Y19: W 2.5, I 2.39, R 3.01, N 3.29, A 3.19, M 3.03, C 2.69, V 2.44, P 3.67, S 3.56, G 3.36, F 2.14, K 3.38, L 2.54
K22: T 1.93, E 2.96, R 2.14, H 2.03, D 2.77, I 1.56, W 2.5, P 1.72, A 2.18, S 1.78, Y 2.47, Q 2.75, L 2.03
G2: Q 2.59, E 3.59, A 1.62, Y 2.03, M 2.83, C 2.56, D 3.7, S 2.45, L 2.08, I 1.7, T 1.9
I4: L 2.94, E 3.45, T 2.81, H 2.79, V 2.63, P 3.1, F 2.21, K 2.24, A 2.95, Y 2.94, D 4.08, Q 3.06, W 2.5, S 2.45
H5: M 2.73, N 2.13, W 2.09, A 3.31, P 3.29, D 3.09, E 3.71, Y 1.98, I 2.67, F 1.99, Q 2.78, V 2.04, L 2.88, R 2.98, G 3.06, S 3.26, C 2.41
Q11: L 2.83, S 2.34, V 1.42, C 1.54, G 2.57, T 1.55, H 2.48, Y 2.24, A 2.26, R 2.32, I 1.68, W 2.67, N 2.39, M 1.93, P 3.5, K 2.15
Y10: K 4.24, V 2.77, M 3.63, C 2.96, F 2.43, G 3.79, P 4.31, E 4.55, S 4.16, A 4.06, H 3.77, N 4.48
N13: A 2.4, V 1.87, L 2.22, P 3.23, D 2.59, T 1.82, G 3.34, F 1.39, M 2.74, C 1.7, E 2.79, H 2.48, I 1.83, Y 2.19
E20: K 2.35, H 2.54, L 2.25, D 2.59, V 1.84, I 2.22, A 2.39, F 1.84, W 2.15, N 2.43, S 2, C 1.66, P 1.72, M 2.33, G 2.21, R 2.08
P7: N 2.84, C 2, G 2.87, L 2.21, I 2.44, S 2.76, R 1.75, H 2.65, F 2.47, Q 2.65, D 3.29, K 2.49
Q15: H 2.11, C 1.43, F 2.4, I 2.74, R 2.67, V 1.6, N 2.62, D 3.06, T 1.81, A 1.96, M 1.96, Y 1.37, K 2.56
I17: V 2.68, A 3.32, F 2.46, D 3.63, T 3.47, R 2.87, M 2.81, K 3.53, C 2.62, N 3.33, E 3.69, Y 2.77, S 3.31
Y1: I 2.92, N 3.32, F 2.52, A 3.35, R 3.44, P 3.67, H 3.45, M 3.73, T 3.83, G 3.66, K 3.15, W 2.67, E 3.93, Q 3.8, S 3.79
D9: K 1.82, V 2.24, N 1.98, C 1.94, A 3.12, I 4.42, R 2.65, Q 2.18, H 1.63, Y 2.08, G 1.75, T 2.42, E 1.95, M 2.23
G6: P 3.18, M 2.85, D 3.61, H 3, A 2.96, W 2.71, S 3.15, I 2.17, L 2.6, Y 2.44, F 1.63, N 3.4, R 2.88, C 2.81, E 3.54
E18: G 2.24, Q 2.1, Y 3.61, K 2.61, F 3.79, V 3.19, P 2.17, L 3.33, W 3.17, C 1.86, T 2.07, I 3.84, S 1.88, A 1.71
Q23: P 2.28, M 2.18, K 2.74, L 1.6, C 1.8, G 2.76, Y 1.93, W 2.56, V 2.12, H 2.31, N 2.88, E 2.72, S 2.43, I 1.81, R 2.51
S3: A 2.85, Y 2.15, G 2.88, N 1.6, P 3.06, H 3.09, C 2.06, K 3.17, T 3.08, R 2.88, F 2.64, D 3.13, E 3
V12: T 3.72, H 4.09, G 3.52, K 3.44, E 4.08, W 2.32, L 3.28, D 4.04, N 4.15, M 2.93, S 3.98, Q 4.19
T24: C 2.16, K 3.05, Q 3.18, E 3.08, M 2.36, I 2.08, G 2.57, Y 2.21, H 2.9, S 2.98, D 3.18, W 2.23, F 1.84, V 2.43
I14: N 3.98, P 3.77, T 3.58, V 3.16, D 3.75, Y 3.35, H 3.48, C 3.3, K 3.75, F 2.92, G 3.32, R 3.53, L 3.36, W 2.76, E 3.46
K21: M 2.02, Q 2.52, Y 1.92, W 2.8, H 1.83, A 1.82, N 2.32, G 2.04, D 2.46, L 1.65, T 2.24, I 2.42, E 2.7, P 1.95, S 2.13, R 2.25
